Data from paper PMC8800040.

Target: aflibercept (human)
Assay: SPR

Kd: 0.0147 nM
kon: 1.16e+07 M⁻¹ s⁻¹
Substance: human VEGF-A165 (ligand)
